According to patent publication US20240358731A1, “SUMO PATHWAY AS AN OXYGEN SENSOR RELEVANT TO THE PATHOPHYSIOLOGY OF PULMONARY ARTERY HYPERTENSION AND CARDIAC ARRHYTHMIA” (Northeastern University, priority 2023, published 2024):

T1: Kir2.1-mediated IK1 current (Rattus norvegicus, UniProt Q64273)
T1 construct: endogenous in cells; host or cells: rat ventricular cardiomyocytes (RVCMs)
T1 sequence (Q64273 1-427): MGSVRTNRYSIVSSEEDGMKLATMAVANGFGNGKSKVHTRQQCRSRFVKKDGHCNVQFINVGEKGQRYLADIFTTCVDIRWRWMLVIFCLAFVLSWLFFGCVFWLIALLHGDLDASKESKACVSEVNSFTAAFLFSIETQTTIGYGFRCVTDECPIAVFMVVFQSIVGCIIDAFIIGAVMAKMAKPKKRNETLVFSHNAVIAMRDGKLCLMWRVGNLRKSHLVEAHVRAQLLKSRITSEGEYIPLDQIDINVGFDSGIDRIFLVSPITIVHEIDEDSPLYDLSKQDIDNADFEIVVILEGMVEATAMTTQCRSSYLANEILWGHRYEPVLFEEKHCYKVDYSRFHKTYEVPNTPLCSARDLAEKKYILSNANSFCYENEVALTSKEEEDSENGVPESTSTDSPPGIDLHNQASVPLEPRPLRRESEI


Target: T1, Kir2.1-mediated IK1 current
Assay: Whole-cell patch-clamp of IK1 in rat ventricular cardiomyocytes under acute hypoxia
Type: cell-based
Conditions: for effect on hypoxic inhibition of IK1: ambient O2 to 2% O2, agent in pipette (SENP1 2 μM, SUMO1 1 μM, diC8-PIP2) or pretreatment (TAK981)
Experimental: IK1 in rat ventricular cardiomyocytes studied by whole-cell patch-clamp. Hypoxia was a drop in O2 from ambient levels to 2%, measured at the cell. The time-course of hypoxic-inhibition was studied by recording the magnitude of IK1 every second. Cells were studied with the following pipette solutions: control, SUMO1 (1 μM) or SENP1 (2 μM). IK1 was blocked by the addition of 3 mM Ba^2+. […] Left, representative current sweeps; right, a representative time course showing the kinetics of hypoxic inhibition in cardiomyocytes studied with control pipette solution. The inhibition is precluded by including SENP1 (2 μM, magenta) in the recording pipette. The reverse ramp recording protocol is inset. […] SENP1 augments IK1 and protects the current from hypoxia. Data are from 8-10 RVCMs per group, **** P<0.0001, paired, two-tailed Student's […]. […] Representative data are shown with DAPI labeled nuclei and PLA interactions. Summary data are obtained from multiple experiments each with multiple fields of view containing 20-30 nuclei. The scale bar is 10 μm.
To knockdown Kir2.1 expression, RVCMs were transduced with lentiviral particles carrying cGFP and shRNA targeting KCNJ2-mRNA for the channel. Kir2.1 knockdown cells (Kir2.1kd-CMs) were identified by expression of cGFP. Cells were studied with control pipette solution, or with pipette solutions containing purified SUMO1 (1 μM) or SENP1 (2 μM). Where indicated, the control pipette solution contained diC8 PIP2. Paired patch-clamp data were analyzed by Students t-test; ***, P<0.01. […] Kir2.1kd-CMs are identified by expression of GFP (inset, scale bar=10 μm). […] The arrow indicates the change in current-magnitude between exposure to ambient O2 and 2% O2 in the same cell. Right, Concentration-response curve showing that including diC8-PIP2 in the pipette opposes hypoxic-inhibition of IK1 in control RVCMs and RVCMs expressing the scrambled shRNA. The hypoxic-response is diminished in Kir2.1kd-CMs. Data are mean±s.d. for 7-8 cells per condition. […] Current inhibition is diminished when SENP1 is included in the recording pipette and is not observed when SUMO-insensitive Kir2.1-K49Q channels are studied. Data are mean±s.d. for 6 cells per condition.
Hypoxic-inhibition of Kir2.1 in cardiomyocytes via SUMOylation. We studied the effects of acute hypoxia on IK1 in rat ventricular cardiomyocytes (RVCMs) by whole cell patch-clamp recording. […] Both the hypoxia-sensitive and insensitive components of the current were blocked by Ba^2+ (3 mM), consistent with the known role of Kir2 channels in mediating IK1 (FIG. 1a). To determine if SUMOylation mediates the hypoxic inhibition of IK1 we introduced purified SENP1 (2 μM) to the cytosol via the recording pipette. […] Both the SUMO1 and hypoxia-mediated inhibition of IK1 remained stable throughout the remainder of the experiment (up to 10 mins). […] Next, we visualized and quantified the interactions between native Kir2.1 and SUMO1 in RVCMs using the proximity-ligation association (PLA) assay with antibodies we validated in heterologous cells by Western blot. […] The validated Kir2 antibodies were paired with SUMO1 antibodies that we have tested and utilized before. Under control conditions, interactions were observed between Kir2.1 and SUMO1, but not between Kir2.2 or Kir2.3 and SUMO1. […] Although cardiomyocytes are typically cultured at 21% O2, the O2-level in the myocardium is estimated to be in the range of 5-10% O2, under physiological conditions.
Hypoxic-inhibition of IK1/Kir2.1 is reduced by diC8-PIP2 in a concentration-dependent manner. We have shown that adding the exogenous, soluble PIP2 analog diC8-PIP2 into the patch-pipette opposes hypoxic-inhibition of IK1 (FIG. 4). […] As before, the effects of hypoxia were ameliorated by SENP1 (2 μM) and were not observed in the SUMO and hypoxia insensitive Kir2.1-K49Q channels (FIG. 4D).

decrease in IK1 (SUMO1 1 μM in recording pipette)	increase in IK1 (purified SENP1 2 μM via recording pipette, mean±S.D.)	Molecule	effect on hypoxic inhibition of IK1
		Cc1sc(C(=O)c2cncnc2N[C@@H]2C[C@H](COS(N)(=O)=O)[C@@H](O)C2)cc1[C@@H]1NCCc2ccc(Cl)cc21 [TAK981, Subasumstat]	precludes hypoxic inhibition of Kir2 currents
48±8%		SUMO1: purified SUMO1 (small ubiquitin-related modifier) protein introduced via the recording pipette or co-expressed	hypoxia-sensitive component of the current was abolished
	17.6±6.5%	SENP1: purified deSUMOylating enzyme (SUMO specific protease) introduced via the recording pipette or expressed (protein, UniProt Q9P0U3 1-644, looked up) Sentrin-specific protease 1: MDDIADRMRMDAGEVTLVNHNSVFKTHLLPQTGFPEDQLSLSDQQILSSRQGHLDRSFTCSTRSAAYNPSYYSDNPSSDSFLGSGDLRTFGQSANGQWRNSTPSSSSSLQKSRNSRSLYLETRKTSSGLSNSFAGKSNHHCHVSAYEKSFPIKPVPSPSWSGSCRRSLLSPKKTQRRHVSTAEETVQEEEREIYRQLLQMVTGKQFTIAKPTTHFPLHLSRCLSSSKNTLKDSLFKNGNSCASQIIGSDTSSSGSASILTNQEQLSHSVYSLSSYTPDVAFGSKDSGTLHHPHHHHSVPHQPDNLAASNTQSEGSDSVILLKVKDSQTPTPSSTFFQAELWIKELTSVYDSRARERLRQIEEQKALALQLQNQRLQEREHSVHDSVELHLRVPLEKEIPVTVVQETQKKGHKLTDSEDEFPEITEEMEKEIKNVFRNGNQDEVLSEAFRLTITRKDIQTLNHLNWLNDEIINFYMNMLMERSKEKGLPSVHAFNTFFFTKLKTAGYQAVKRWTKKVDVFSVDILLVPIHLGVHWCLAVVDFRKKNITYYDSMGGINNEACRILLQYLKQESIDKKRKEFDTNGWQLFSKKSQEIPQQMNGSDCGMFACKYADCITKDRPINFTQQHMPYFRKRMVWEILHRKLL	insensitive to hypoxia
